# Reference: patent US12383572B2, “Administration of an anti-activin-a compound to a subject” (AMGEN INC., priority 2013, dated 2025)
# B1: sActRIIB: extracellular domain of human activin type-2B receptor fused to IgG2 Fc; full length SEQ ID NO: 21 (Table 9) (protein, listed as Homo sapiens)
# chain: ETRWCIYYNANWELERTNQSGLERCEGEQDKRLHCYASWRNSSGTIELVKKGCWLDDFNCYDRQECVATEENPQVYFCCCEGNFCNERFTHLPEAGGPEVTYEPPPTAPTGGGGSVECPPCPAPPVAGPSVFLFPPKPKDTLMISRTPEVTCVVVDVSHEDPEVQFNWYVDGVEVHNAKTKPREEQFNSTFRVVSVLTVVHQDWLNGKEYKCKVSNKGLPAPIEKTISKTKGQPREPQVYTLPPSREEMTKNQVSLTCLVKGFYPSDIAVEWESNGQPENNYKTTPPMLDSDGSFFLYSKLTVDKSRWQQGNVFSCSVMHEALHNHYTQKSLSLSPGK
# What was measured:
# [1] = test system: ovarian tumors in inh-KO mice; assay: Ovarian tumor mass by necropsy in female inh-KO mice; type: in vivo, mouse; conditions: 12-week-old female inh-KO mice, single injection 30 mg/kg SC, necropsy 14 days after
# Description: Inh-KO mice. 12-week-old female and 8-week-old male inh-KO mice with fully established ovarian or testicular tumors received a single injection of PBS or sActRIIB (30 mg/kg, SC). As a control, age-matched wild-type littermates received a single injection of PBS. Ovarian and testicular organ weights were determined by necropsy 14 days after the injection.
# [2] = test system: ovarian and testicular tumors; assay: Light microscopy (H & E) of inh-KO ovaries and testes; type: in vivo, mouse
# Source text: Testes and ovaries from inh-KO mice were fixed with Zinc-formalin. Tissue sections were subjected to H & E staining and then examined with a Nikon Eclipse 90i microscope.
# [3] = test system: TOV-21G, BAEC, MRC-5, CCD-Lu, U937 and THP-1 cultures; assay: Real-time RT-PCR of VEGF, Ang-1 and βA in cell cultures treated with recombinant activin-A; type: cell-based; conditions: sActRIIB added with recombinant activin-A
# Source text: ID NO: 291), [NT] ID NO: 292), and TaqMan probe [NT] ID NO: 293).
# [4] = test system: VEGF and Ang-1; assay: VEGF and Ang-1 immunostaining of inh-KO ovarian and testicular tumor sections; type: in vivo, mouse; conditions: ovarian and testicular tumors, inh-KO mice
# Description: (§1) Zinc-formalin fixed paraffin tumor tissue sections of 4 μm in thickness were prepared. The sections were subjected to antigen retrieval by microwave 3 min in Unmask solution (Vector H-3300) followed by incubation in 10 μg/ml Proteinase-K for 20 min and in 1% H2O2 in dH2O for 10 min at room temperature. The sections were further incubated in 0.1% Tween-20 in PBS for 3 min to permeabilize the cell membrane and in goat serum for 30 min to block non-specific binding. The sections were then incubated at room temperature with specific primary antibody for 3 hours followed by incubation in biotinylated or fluorescently labeled secondary antibody. Substrate developed in Vector SG kit (SK-4700) or DAB and nuclear-counterstained in Vector Fast Red (H-3403) or in hematoxylin. The immunostained tissue sections were analyzed and photographed using a Nikon Eclipse 90i microscope equipped with DS-Ril camera. The primary antibodies used and their dilutions are as follows: VEGF (BD Pharmingen 550549) 1:20 or VEGF (Abcam ab46154) 1:100, active caspase-3 (Abcam ab32042) 1:50, Ang-1 (Abcam ab8451) 1:500, osteopontin (Abcam ab8448) 1:200, CD-31 (Abcam ab56299) 1:100, E-cadherin (Abcam ab76319) 1:80. For immunofluorescence staining, FITC-conjugated secondary antibody (Invitrogen) was added at 1:50 dilution in PBS and incubated for 30 min. Cell nuclei were counterstained with Vectashield PE (Vector).
# [5] = test system: caspase-3; assay: Active caspase-3 immunostaining of inh-KO tumor sections; type: in vivo, mouse; conditions: ovarian and testicular tissue sections, regions of residual tumor cells
# Description: as §1
# [6] = test system: G361 human melanoma xenografts; assay: G361 melanoma xenograft growth in nude mice; type: in vivo; conditions: sActRIIB 20 mg/kg SC 1x/week from day 14
# Description: G361 and 5637 xenografts. 5×10^6 G361 melanoma cells and 5637 bladder carcinoma cells, respectively, were inoculated SC into individual athymic nu/nu mice (Harlan Inc). Treatment was initiated 4 days after 5637 implantation and 14 days after G361 implantation, when the tumor volumes reached 130 mm^3−150 mm^3. 5637-implanted mice received PBS or activin-A antibody (10 mg/kg, SC, 2×/week). G361-implanted mice received PBS or sActRIIB (20 mg/kg, SC, 1×/week).
# For all xenograft experiments, the tumor sizes were measured longitudinally by using an electronic caliper. Immediately prior to the 1st dose, the tumor-bearing mice were randomized to ensure even distribution in tumor sizes across different groups. Tumor volumes (mm^3) were calculated as tumor length (mm)×tumor width (mm)×tumor height (mm). Tumor weights were determined by necropsy.
# [7] = sActRIIB and doxorubicin in TOV-21G tumor-bearing nude mice: body weight and muscle mass; type: in vivo, mouse
# Description: The objective of the present study was to examine the effect of pharmacological administration of sActRIIB, doxorubicin (dox), and sActRIIB plus doxorubicin, respectively, on body weight, tumor growth and muscle mass in nude mice implanted with TOV-21G ovarian xenograft tumors. Eight-week-old female Athymic nude mice were SC injected with 0.2 mL of 5×10^6 TOV-21G cells into the left site of the lower flank of the mice. After 10 days of tumor implantation, the mice were divided into 4 groups by body weight and tumor size and then treated with vehicle, sActRIIB, doxorubicin or the combination of sActRIIB and doxorubicin. In addition, a group of non-tumor bearing mice was used as normal control and received PBS.
# Mice were weighed weekly. Body weight data were recorded longitudinally. Tumor size was measured longitudinally by using an electronic caliper. The following formula was used to calculate actual tumor volume (Tomayko M and Reynolds C, 1989): (Volume of a rectangular solid tumor: Tumor volume (mm^3)=length (mm)×width (mm)×height (mm) of tumor). At the end of the study, mice in all groups were subjected to terminal necropsy and lean carcass weight (excluding skin, adipose tissue, internal organs, and head) was determined by using standard anatomical dissection procedures. […] All results were expressed as the mean±SEM (standard error of the mean). […]
# [8] = test system: TOV-21G tumors (apoptosis); assay: Active caspase-3 immunostaining and TUNEL assay on TOV-21G tumor sections; type: in vivo, human; conditions: TOV-21G xenograft tumors
# Description: as §1, with “The primary antibodies used and their dilutions are as follows: VEGF (BD Pharmingen 550549) 1:20 or VEGF (Abcam ab46154) 1:100, active caspase-3 (Abcam ab32042) 1:50, Ang-1 (Abcam ab8451) 1:500, osteopontin (Abcam ab8448) 1:200, CD-31 (Abcam ab56299) 1:100, E-cadherin (Abcam ab76319) 1:80. For immunofluorescence staining, FITC-conjugated secondary antibody (Invitrogen) was added at 1:50 dilution in PBS and incubated for 30 min. Cell nuclei were counterstained with Vectashield PE (Vector).” left out
# Cell apoptosis in TOV-21G tumors was analyzed by measuring the amounts of fragmented DNA in the tumor sections using the DeadEnd Fluorometric TUNEL System following the manufacturer's recommended protocols (Promega, G3250). The fluorescein-12-dUTP-labeled DNA was visualized by Nikon fluorescence microscopy.
# [9] = test system: TOV-21G xenografts; assay: TOV-21G xenograft in abdominal flank, hu-sActRIIB-Fc alone or with 5-FU: tumor growth; type: in vivo, human; conditions: 52 days after tumor cell injection, versus vehicle-treated tumor-bearing group
# Description: In another experiment, athymic nude mice received TOV-21G xenografts in the abdominal flank. After 14 days, subcutaneous hu-sActRIIB-Fc was administered weekly alone or in combination with 5-FU.
# [10] = test system: TOV-21G, MRC-5, CCD-Lu and THP-1 cell cultures; assay: VEGF and Ang-1 ELISA of cell culture medium after recombinant activin-A; type: cell-based, human; conditions: sActRIIB added with activin-A
# Description: The serum VEGF levels in inh-KO mice were measured by using immunoassay kit (R & D Systems), and the levels of human VEGF and Ang-1 in cell line culture medium were quantified using ELISA kits purchased from Invitrogen (VEGF) and R & D Systems (Ang-1), by following the manufacturers' recommended protocols.
molecule,measurement,setting,value
B1,ovarian tumor mass,[1],regressed rapidly to the sizes seen in the WT control mice
same,ovarian morphology by light microscopy,[2]; female inh-KO mice,"the ovaries were normal in size and contained many recognizable follicles, minimal tumor cell invasion and few hemorrhagic lesions"
same,testicular morphology by light microscopy,[2]; male inh-KO mice,"the testes were normal in size and filled with seminiferous tubules, although the number of spermatogonia was less than normal and a few small areas still contained tumor cells"
same,induction of VEGF and Ang-1 mRNA by recombinant activin-A,[3],prevented this induction of VEGF and Ang-1
same,induction of βA expression by recombinant activin-A,[3],blocked completely
same,VEGF and Ang-1 immunoreactivities in tumor sections,[4],completely abolished the VEGF and Ang-1 inductions in the tumors
same,active caspase-3 immunostaining,[5],strong immunostaining of active caspase-3
same,growth rate and size of G361 xenografts,[6],significantly decreased the growth rates and sizes
same,body weight,"[7]; TOV-21G tumor-bearing nude mice, sActRIIB 10 mg/kg SC 1x/week, DOX 2 mg/kg IP 1x/week",effectively prevented the weight loss
same,lean carcass weight and calf muscle mass,"[7]; TOV-21G-implanted nude mice, necropsy at end of 4-week experiment",prevented the loss in lean carcass weight and calf muscle mass
same,active caspase-3 and DNA fragmentation (TUNEL),[8],profound increases in active caspase-3 and DNA fragmentation
same,tumor growth reduction,[9],43%
same,activin-A-induced release of angiogenic factors (ELISA),[10],blocked completely this activin-A-induced release of angiogenic factors
